Results published in the RNAGym collection of RNA variant scans (doi:10.1073/pnas.2313332121).

B1: TPR t1 (parent)
chain: GACCAAUCUGCCCUCAGAGCUCGAGAACAUCUUCGGAUGCAGAGGAGGCAGGCUUCGGUGGCGCGAUAGCGCCAACGUCCUCAACCUCCAAUGCAUCCCACCACAUGAUGAUGCCUGAAGAGCCUUGGUUUUUUG

Variants of: B1
Assay: polymerase ribozyme fitness, log enrichment relative to wild type (log ratio); higher = more active; in vitro selection for triplet polymerase activity
Outline: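 The heterodimeric triplet polymerase ribozyme's subunits were each mutagenized into PCR-built libraries and transcribed. Every library was selected once, in triplicate, by annealing with a biotinylated primer, the partner subunit and triplets, incubating frozen at −7 °C, gel-excising extended constructs, capturing on streptavidin beads and running RT-PCR. Input and output libraries were Illumina-sequenced, with genotypes kept only at ≥10 input reads and ≥1 read per output. Fitness, from inverse-variance-weighted replicate averages, is the base-2 logarithm of genotype enrichment over wild-type enrichment.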

Variant | polymerase ribozyme fitness (log ratio)
C3A C49G A75U U125A | -2.69
C3A C72A A111C | -1.3
C3A C72U G93U A111G | -3.35
C3A C85A | -3.94
C3A C85U | -2.76
C3A C89U | -1.82
C3A C97U | -2.33
C3A C99U | -3.8
C3A C115A | -1.99
C3A C124G | 1.55
C3A G10A C13A G36U C70A U129C | -5.83
C3A G17U A18C A24U U32G C40G G42U A43G U109C | -6.6
C3A G36A G44C C72A U130A | -4.85
C3A G39A G113A C124U | -3.14
C3A G39U C114A U125G | -3.98
C3A G45U C72G U87C | -3.73
C3A G47A C72A A100C | -2.89
C3A G48A C86U A121G G127C U131G U132A | -0.349
C3A G48U G71C C101A G127A | -3.71
C3A G48U U125A | -2.7
C3A G52U | -1.75
C3A G52U C72A C89G C104A G113U A119U C123G | -5.02
C3A G52U C123A | -0.759
C3A G61A C79U | -1.27

Variant | polymerase ribozyme fitness (log ratio)
C3A G61C | -3.47
C3A G69A | -3.74
C3A G71U C115G A118U | -4.97
C3A G110C C123G | -4.82
C3A G117C | -3.87
C3A G120U | -0.479
C3A U7A G57U G60C A83U A121C | -1.26
C3A U9A C12A A83G | -2.57
C3A U9A C28U C53A C94A | -4.65
C3A U9A G52U C88G A91C G127U | -1.59
C3A U14G A119U G120A | -1.62
C3A U55G | -1.43
C3A U78C U87C C102U C124G U131A | -0.482
C3A U81G C115U | -6.22
C3A U92A C114U | -4.76
C3A U116C | -2.44
C3A U130A | -2.53
C3G A5U C11U C73U C89G C123U | -1.08
C3G A83C | -2.39
C3G A95G C101A A111C | -2.16
C3G C8G | -0.464
C3G C8G G10A A18U A41G G69C A121G | -4.57
C3G C12G G120A G128U | 0.37
C3G C13U G45U G48A | -2.41

Variant | polymerase ribozyme fitness (log ratio)
C3G C20U A46G C124U | -2.93
C3G C22A | -4.35
C3G C56A C86G C104A | -5.13
C3G C62U | -1.58
C3G C64U G69A | -2.41
C3G C70G | -4.26
C3G C70G C80U G128C | -1.99
C3G C73G | -3.19
C3G C82A | -2.49
C3G C94G C114U G128C | -2.66
C3G C102U C124A | -2.89
C3G G36U C72G C86A C99G U112G U129C U134G | -5.02
C3G G39C C53G G113U | -5.93
C3G G93A | -2.07
C3G G120A | -1.23
C3G G120A C124G G128C | 0.839
C3G U7A C11A C40A C73U C85G | -4.89
C3G U7G C88G C114U | -2.56
C3G U9A G71U G110C | -5.18
C3G U96A | -3.4
C3G U106C C123G | -1.58
C3G U109G | -5.75
C3G U112A | -0.0942
C3G U112A C115A | -2.03

Variant | polymerase ribozyme fitness (log ratio)
C3U A6C C13A | -3.09
C3U A18U C82A G120C | -1.8
C3U A26U C49U A118U | -3.26
C3U A27C U130C | -2.28
C3U A27G G42U C72U C82U C104U | -3.31
C3U A27U G52U C72U C76U C85U U116G C124U U129C | -7.12
C3U A37C C53G U55C | -1.11
C3U A41C C70G U112C C124U | -3.32
C3U A41C G42A U78C U92G | -3.33
C3U A43C A50G C73U | -2.2
C3U A43C U87G | -3
C3U A84U | -0.78
C3U C4A | -1.77
C3U C4A G51C C53A G71U A103G C114U | -5.71
C3U C4A U14G U32G A37G A46C C49A C53U C114G U116C | -5.66
C3U C8A C79U A121C | 1.18
C3U C8G A29G | -1.43
C3U C11A | -1.47
C3U C11A C15A A121U | 0.659
C3U C11A G47A U87G | -2.77
C3U C11G G63C C86U U109G U131A | -5.05
C3U C11G U21G G113U G127A | -2.58
C3U C11U A37U C53U | -0.631
C3U C11U U87A C124U | 0.336

Variant | polymerase ribozyme fitness (log ratio)
C3U C12A | -0.942
C3U C12A A75U U87C C124U | 0.0602
C3U C12A A91U | -2.92
C3U C12A C82A | -1.8
C3U C12G A46C | -0.734
C3U C12G C72U | -0.647
C3U C12U C53G C56U U106A A111C C123G G127A | -5.21
C3U C13A A29U G44C C124G U132C | -3.39
C3U C13G A90U A121C C124A | -0.103
C3U C13G G48U A50U U92C G120A U131A | -3.5
C3U C13U | -0.225
C3U C13U G120A | 1.11
C3U C15U U106G | -3.3
C3U C20G | -3.47
C3U C20G G113A | -1.16
C3U C22G C56U G117C | -4.66
C3U C22G G39U C49G C70U G110U | -5.2
C3U C28U G71A C89A C123G U130C | -4.19
C3U C34A C76U G120C | -3.72
C3U C34G C73U C123U | -4.72
C3U C34G C123U | -4.64
C3U C49A G120A | -0.42
C3U C53G | -0.501
C3U C56A A68G G120C | -3.32

Variant | polymerase ribozyme fitness (log ratio)
C3U C56A G69A C72A C101U U112A C123G | -5.58
C3U C56G G58U G113U | -4.35
C3U C62G | -2.24
C3U C62G G113A C114G A121U | -4.51
C3U C62G U106A G113A | -4.93
C3U C70A | -1.81
C3U C70A C86U A118U | -1.74
C3U C72G | -0.854
C3U C73U | -0.279
C3U C79A G113U | -5.54
C3U C79A G117A | -4
C3U C79G C97G A121G | -5.3
C3U C79U | -0.681
C3U C82G | -0.798
C3U C86A | -0.57
C3U C86U A95U U125G U126G | -3.14
C3U C115U | -1.53
C3U C123A | 0.564
C3U C123G | 1.6
C3U G10U A29G G44U G57C C82U A105U G120C | -6.47
C3U G17A G36C C49A A50U G58C G60A C88U G117U | -6.3
C3U G23C G60A U106A A111C | -6.81
C3U G36U G63U C88U A111U C124U | -6.17
C3U G39A U54G G120C | 0.423

Variant | polymerase ribozyme fitness (log ratio)
C3U G39U C73A C98U | -2.51
C3U G39U G47A G117A | -4.33
C3U G44C C114A A119U G122C | -3.33
C3U G47A G60A C85G C123U | -2.64
C3U G48U U54G G120C | 0.141
C3U G51U C80U | -2.32
C3U G57A C72U | -0.755
C3U G60A C82A U106A G120A | 0.775
C3U G60A G77U G117C | -3.58
C3U G69A | -2.67
C3U G69U C94G C114A U125A | -3.19
C3U G69U C98A G113A | -1.77
C3U G69U G113C | -1.33
C3U G71U A121G U125A | 1.49
C3U G77A A121U | 2.03
C3U G110C | -4.17
C3U G113C | -2.47
C3U G120C | 0.705
C3U G122A | -1.01
C3U U7A A37C C98U | -2.2
C3U U7G A111U | -1.66
C3U U7G C20U U21G C73U G110U C124G | -4.5
C3U U9A A27G G42U A100U U133A | -3.45
